Assay results published in patent US20240124590A1 (ULTRAHUMAN EIGHT, published 2024).

Assays:
[1] = target: T1, human KDR (VEGFR2) on cells (human, UniProt P35968 20-1356); assay: cell microarray re-array, transfected HEK293
T1 construct: Transfected HEK293 cells (arrays, flow cytometry) and human VEGFR2 reporter cells
Protocol: (§1) Antibody binding was detected using AF647 fluorescent secondary anti-human IgG1 antibody. Primary hits (duplicate spots) were identified by analysing fluorescence (AF647 and ZsGreen1) on ImageQuant. Vectors encoding all hits were sequenced to confirm their correct identities. […] Slides were analysed as above. Flow cytometry confirmation screen: Expression vectors encoding ZsGreen1 only, or ZsGreen1 and PD1, FZDS, KDR or ULBP2, were transfected into human HEK293 cells. Each live transfectant was incubated with […] of each of the test antibodies and the Isotype control antibody. Cells were washed, and incubated with the same AF647 anti-human IgG Fc detection antibody as used in the cell microarray screens. Cells were again washed, and analysed by flow cytometry using an Accuri flow cytometer (BD). A 7AAD live/dead dye was used to exclude dead cells, and ZsGreen1-positive cells (i.e. transfected cells) were selected for analyses.

[2] = target: T2, human PD1 expressed on cells (human, UniProt Q15116 25-288); assay: cell microarray re-array, transfected HEK293
T2 construct: also called human PD1+ CHO cells; PD1-transfected HEK293 cells
Protocol: as §1

[3] = target: T3, human FZD5 (frizzled class receptor 5) on transfected HEK293 cells (human, UniProt Q13467 27-585); assay: cell microarray re-array, transfected HEK293
T3 construct: also called FZDS; FZ5
Protocol: as §1

[4] = target: T4, human ULBP2 (UL16 binding protein 2) on transfected HEK293 cells (human, UniProt Q9BZM5 26-217); assay: cell microarray re-array, transfected HEK293
T4 sequence: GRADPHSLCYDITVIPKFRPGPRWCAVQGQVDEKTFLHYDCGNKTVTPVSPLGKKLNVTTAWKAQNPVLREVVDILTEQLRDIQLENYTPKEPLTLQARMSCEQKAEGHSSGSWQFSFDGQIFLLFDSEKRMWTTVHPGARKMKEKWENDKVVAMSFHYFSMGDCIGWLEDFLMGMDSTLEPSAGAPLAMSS
Protocol: as §1

[5] = target: T5, human monomeric VEGFR2-his protein (human, UniProt P35968 20-764); assay: SPR (Biacore), IgG captured, VEGFR2-his analyte
T5 construct: Soluble analyte; whole entry named; also called human VEGFR2-his; not shown: his tag
Protocol: (§2) Affinity (KD) of purified IgGs was determined via SPR with antigen in-solution on a Biacore 3000 (GE). A mouse anti-human antibody (CH1 specific) was immobilized on a CM5 Sensor Chip to a level of 2000 RU in acetate buffer at pH 4.5 using amine coupling following the Wizard instructions for two channels. One channel was used for background signal correction. The standard running buffer HBS-EP pH 7.4 was used. Regeneration was performed with a single injection of 10 μl of 10 mM Glycine at pH 1.5 at 20 μl/minute. IgG samples were injected for 2 minutes at 50 nM at 30 μl/min followed by and off-rate of 60 seconds. […] The obtained sensorgrams were analysed using the Biacore 3000 evaluation (BIAevaluation) software. The KD was calculated by simultaneous fitting of the association and dissociation phases to a 1:1 Langmuir binding model.

[6] = target: T6, rhesus monomeric VEGFR2-his protein (rhesus); assay: SPR (Biacore), IgG captured, VEGFR2-his analyte
T6 construct: Soluble analyte; whole entry named; also called rhesus VEGFR2-his; not shown: his tag
T6 chain: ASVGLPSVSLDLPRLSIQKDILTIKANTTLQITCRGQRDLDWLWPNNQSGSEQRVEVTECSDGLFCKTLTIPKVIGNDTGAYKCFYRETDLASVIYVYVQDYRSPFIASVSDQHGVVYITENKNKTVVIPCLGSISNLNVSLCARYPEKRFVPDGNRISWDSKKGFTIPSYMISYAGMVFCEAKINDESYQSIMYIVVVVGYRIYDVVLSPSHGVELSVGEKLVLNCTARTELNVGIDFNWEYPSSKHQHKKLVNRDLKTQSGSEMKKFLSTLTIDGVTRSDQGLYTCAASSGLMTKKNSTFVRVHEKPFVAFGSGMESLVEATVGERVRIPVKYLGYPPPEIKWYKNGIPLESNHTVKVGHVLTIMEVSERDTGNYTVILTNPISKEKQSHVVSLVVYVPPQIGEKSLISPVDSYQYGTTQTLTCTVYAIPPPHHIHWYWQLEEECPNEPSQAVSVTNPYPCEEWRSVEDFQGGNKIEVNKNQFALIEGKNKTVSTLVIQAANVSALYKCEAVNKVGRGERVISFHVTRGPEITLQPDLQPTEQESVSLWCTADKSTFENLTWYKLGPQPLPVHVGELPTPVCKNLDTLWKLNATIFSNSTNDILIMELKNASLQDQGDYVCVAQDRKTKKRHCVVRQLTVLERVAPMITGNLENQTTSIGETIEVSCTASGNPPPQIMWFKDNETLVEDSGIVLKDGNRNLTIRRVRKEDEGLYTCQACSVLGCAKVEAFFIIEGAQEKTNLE
Protocol: as §2

[7] = target: T7, recombinant ectodomain of rhesus VEGFR2 (rhesus); assay: direct ELISA
T7 construct: whole entry named
T7 chain: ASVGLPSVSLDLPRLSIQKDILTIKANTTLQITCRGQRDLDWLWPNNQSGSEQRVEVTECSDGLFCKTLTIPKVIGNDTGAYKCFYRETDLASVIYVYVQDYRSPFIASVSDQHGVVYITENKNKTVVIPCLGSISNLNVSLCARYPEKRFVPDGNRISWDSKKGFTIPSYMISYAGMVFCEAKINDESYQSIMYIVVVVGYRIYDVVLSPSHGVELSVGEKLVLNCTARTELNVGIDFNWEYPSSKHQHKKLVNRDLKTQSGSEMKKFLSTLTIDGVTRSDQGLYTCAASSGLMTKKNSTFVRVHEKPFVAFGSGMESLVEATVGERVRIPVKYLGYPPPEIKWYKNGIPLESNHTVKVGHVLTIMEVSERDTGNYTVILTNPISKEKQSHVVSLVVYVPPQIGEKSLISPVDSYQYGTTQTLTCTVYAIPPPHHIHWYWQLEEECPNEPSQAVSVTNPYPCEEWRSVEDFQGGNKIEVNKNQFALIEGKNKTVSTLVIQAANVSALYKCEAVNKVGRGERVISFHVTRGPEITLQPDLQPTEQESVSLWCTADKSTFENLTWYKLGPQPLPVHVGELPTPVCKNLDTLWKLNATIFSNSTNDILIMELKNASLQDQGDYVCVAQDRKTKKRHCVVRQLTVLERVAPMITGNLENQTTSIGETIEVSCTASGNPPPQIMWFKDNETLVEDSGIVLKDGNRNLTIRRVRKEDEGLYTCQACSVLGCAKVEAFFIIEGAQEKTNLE

[8] = target: T8, cyno PD1 protein (construct not stated) (cynomolgus monkey, UniProt Q15116 25-170 (human entry), limits assumed); assay: direct ELISA
T8 construct: may be two constructs; also called cyno PD1 in the Alphascreen screen
T8 chain: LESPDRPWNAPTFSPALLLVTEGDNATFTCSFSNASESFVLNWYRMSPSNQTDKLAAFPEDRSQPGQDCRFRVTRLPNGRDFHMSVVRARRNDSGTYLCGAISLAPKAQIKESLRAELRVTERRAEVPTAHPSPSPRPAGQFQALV

[9] = target: T9, recombinant ectodomain of human VEGFR2 (human, UniProt P35968 20-764); assay: direct ELISA
T9 construct: whole entry named

[10] = target: T10, human PD1 protein (construct not stated) (human, UniProt Q15116 25-170, limits assumed); assay: direct ELISA
T10 construct: Coated protein of the off-target ELISA; whole entry named
T10 sequence (Q15116 25-170 limits assumed): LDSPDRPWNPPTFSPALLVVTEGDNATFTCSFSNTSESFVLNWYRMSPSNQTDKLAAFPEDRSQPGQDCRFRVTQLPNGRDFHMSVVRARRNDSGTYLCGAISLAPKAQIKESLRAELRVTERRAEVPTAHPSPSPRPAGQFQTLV

T3 sequence (Q13467 27-585 limits assumed): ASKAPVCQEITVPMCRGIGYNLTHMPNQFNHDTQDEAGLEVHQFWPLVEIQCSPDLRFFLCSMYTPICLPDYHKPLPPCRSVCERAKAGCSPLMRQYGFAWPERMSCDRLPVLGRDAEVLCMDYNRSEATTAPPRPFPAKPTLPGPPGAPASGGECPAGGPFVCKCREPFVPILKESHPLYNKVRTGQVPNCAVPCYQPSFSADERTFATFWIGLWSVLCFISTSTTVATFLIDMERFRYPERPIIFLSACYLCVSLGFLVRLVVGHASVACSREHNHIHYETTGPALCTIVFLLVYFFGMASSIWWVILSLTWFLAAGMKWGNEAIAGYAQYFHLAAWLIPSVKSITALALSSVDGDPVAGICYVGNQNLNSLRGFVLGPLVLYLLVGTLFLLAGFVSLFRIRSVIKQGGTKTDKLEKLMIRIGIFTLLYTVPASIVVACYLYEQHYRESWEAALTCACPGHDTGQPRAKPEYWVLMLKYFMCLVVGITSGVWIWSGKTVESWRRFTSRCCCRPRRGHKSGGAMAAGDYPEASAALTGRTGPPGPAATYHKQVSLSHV
T2 sequence (Q15116 25-288 limits assumed): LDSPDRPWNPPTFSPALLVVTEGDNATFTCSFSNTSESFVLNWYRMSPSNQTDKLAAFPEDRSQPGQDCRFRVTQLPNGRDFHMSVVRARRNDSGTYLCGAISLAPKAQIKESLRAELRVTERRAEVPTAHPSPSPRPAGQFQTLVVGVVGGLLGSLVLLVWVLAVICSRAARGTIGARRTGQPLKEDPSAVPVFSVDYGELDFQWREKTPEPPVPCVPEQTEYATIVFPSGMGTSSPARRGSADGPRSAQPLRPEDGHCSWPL

binding result [1]: binds
binding result [2]: binds
binding result [3]: binds
binding result [4]: binds
binding result [5]: binds
binding result [6]: binds
binding result [7]: binds
binding result [8]: binds
binding result [9]: binds
binding result [10]: binds
B1: mVH/mVL Mab005-IgG1 (antibody, V domains shown)
VH: EVMLVESGGGLVKPGGSLKLSCAASGFTFSSYMMSWVRQTPEKRLEWVATISGGGANTYYPDSVKGRFTISRDNAKNTLYLQMSSLRSEDTALYYCARQLYYFDYWGQGTTLTVSS
VL: DIQMTQSPASQSASLGEGVTITCLASQTIGTWLTWYQQKPGKSPQLLIYTATSLADGVPSRFSGSGSGTKFSFKISSLQAEDFVTYYCQQVYSIPWTFGGGTKLEIK
notes: Murine PD1-mVH/PD1-mVL on human IgG1null + Ckappa; also called original murine hybridoma v-domains
